{
  "source": "patent US20160213766A1",
  "about": "(VENTRIA BIOSCIENCE, published 2016)",
  "proteins": {"B1": {"name": "rice-derived CTB.OspA fusion protein (other)", "chain": "TPQNITDLCAEYHNTQIHTLNDKIFSYTESLAGKREMAIITFKNGATFQVEVPGSQHIDSQKKAIERMKDTLRIAYLTEAKVEKLCVWNNKTPHAIAAISMANPGPGPGCKQNVSSLDEKNSVSVDLPGEMKVLVSKEKNKDGKYDLIATVDKLELKGTSDKNNGSGVLEGVKADKSKVKLTISDDLGQTTLEVFKEDGKTLVSKKVTSKDKSSTEEKFNEKGEVSEKIITRADGTRLEYTGIKSDGSGKAKEVLKGYVLEGTLTAEKTTLVVKEGTVTLSKNIAKSGEVSVELNDADSSAATKKTAAWNSGTSTLTITVNSKKTKDLVFTKENTITVQQYDSAGTKLEGSAVEITKLDEIKNALK", "notes": "also called OspA-CTB fusion protein; rice CTB.OspA fusion protein"}},
  "molecular_target": "the molecule itself",
  "assay": "Western blot under non-reducing, non-heated conditions; self-association",
  "data": [
    {"protein": "B1", "values": [
      {"measurement": "binding result", "value": "binds"}
    ]}
  ]
}
